In the data set the target is Q13093. Description: estimated from residual CAM activity after 10 days at 4 C against enzyme concentration (dilution inactivation); self-association.

B1: recombinant lipoprotein-associated phospholipase A2 (rLp-PLA2) expressed in HEK293 cells (protein)
chain: FDWQYINPVAHMKSSAWVNKIQVLMAAASFGQTKIPRGNGPYSVGCTDLMFDHTNKGTFLRLYYPSQDNDRLDTLWIPNKEYFWGLSKFLGTHWLMGNILRLLFGSMTTPANWNSPLRPGEKYPLVVFSHGLGAFRTLYSAIGIDLASHGFIVAAVEHRDRSASATYYFKDQSAAEIGDKSWLYLRTLKQEEETHIRNEQVRQRAKECSQALSLILDIDHGKPVKNALDLKFDMEQLKDSIDREKIAVIGHSFGGATVIQTLSEDQRFRCGIALDAWMFPLGDEVYSRIPQPLFFINSEYFQYPANIIKMKKCYSPDKERKMITIRGSVHQNFADFTFATGKIIGHMLKLKGDIDSNVAIDLSNKASLAFLQKHLGLHKDFDQWDCLIEGDDENLIPGTNINTTNQHIMLQNSSGIEKYN
With B1, the “concentration at which half is monomer and half aggregate or oligomer” value was “At the concentration at 2.5 µg/ml or 53 nM, roughly half of rLp-PLA2 is in monomer and half forms the aggregate or oligomer as estimated”.

The values are drawn from patent US20150086999.
